Our source for the Km, kcat and kcat/Km values is publication PMC7691350, “Integron gene cassettes harboring novel variants of D-alanine-D-alanine ligase confer high-level resistance to D-cycloserine” (Scientific Reports, 2020).

Read-outs that look alike come from different tables or passages of the source.

One data set has as its system Ddl6. Kind of data set: PK/LDH-coupled spectrophotometric assay, […] nm. The data set is classed as biochemical. Particulars: 10 mM MgCl2, 10 mM KCl, 100 mM HEPES pH 7.5, 37 °C.
The subject of another data set is C[C@@H](N)C(=O)O. Put plainly: purified protein. To be noted: second D-alanine binding, 500 µM ATP, 10 mM MgCl2, 10 mM KCl, 100 mM HEPES pH 7.5, 37 °C.
Data set [1] deals with Nc1ncnc2c1ncn2[C@@H]1O[C@H](COP(=O)(O)OP(=O)(O)OP(=O)(O)O)[C@@H](O)[C@H]1O. Put plainly: purified protein. To be noted: 100 mM D-alanine, ATP 5-320 µM, 10 mM MgCl2, 10 mM KCl, 100 mM HEPES pH 7.5, 37 °C.

In general, Km refers to the substrate concentration at which the rate is half of its maximum. Take `Nc1ncnc2c1ncn2[C@@H]1O[C@H](COP(=O)(O)OP(=O)(O)OP(=O)(O)O)[C@@H](O)[C@H]1O` [ATP]: the Km in the data set on Ddl6 (read-out: Km, ATP, 100 mM D-alanine, ATP 5-320 µM) is 55 µM.
With `C[C@@H](N)C(=O)O` [D-alanine], the Km with Ddl6 (second D-alanine binding, 500 µM ATP, read-out: Km, D-ala2) is 390 µM.
Broadly, the kcat is the number of substrate molecules converted per active site and unit of time at saturation. As a reminder, the kcat/Km is the second-order rate constant that governs catalysis at low substrate concentration. On to DdlAEc (Escherichia coli K-12), for which, in the data set with C[C@@H](N)C(=O)O, the Km came to 0.52 mM, the kcat is 6.43 s⁻¹ and the kcat/Km turned out to be 12500 M⁻¹ s⁻¹. Besides, the Km in data set [1] is 48.99 µM.
For DdlTd (Treponema denticola ATCC 35405) the same measures were 0.45 mM, 3.74 s⁻¹, 8290 M⁻¹ s⁻¹ and 19.08 µM.
